Results: the Immune Epitope Database (IEDB)
Values belong to the sequence of their own block, whether it stands above or below them.

Columns and labels:
HLA-A*29:02 = experiment: IEDB peptide-MHC binding, purified MHC/competitive/fluorescence; filed as Kd, often an IC50 or EC50 that approximates it; ≥ and ≤ were set here for values at or beyond the usual limits of such assays
HLA-A*02:01 [1] = experiment: IEDB peptide-MHC binding, purified MHC/direct/fluorescence; filed as Kd, often an IC50 or EC50 that approximates it; ≥ and ≤ were set here for values at or beyond the usual limits of such assays
HLA-A*69:01 = experiment: as above
HLA-C*06:02 = experiment: as above
HLA-A*68:02 [2] = experiment: as above; settings: source organism: Limestone Canyon virus
HLA-A*03:01 [3] = experiment: as above
HLA-B*27:03 = experiment: IEDB peptide-MHC binding, purified MHC/competitive/fluorescence; filed as Kd, often an IC50 or EC50 that approximates it; ≥ and ≤ were set here for values at or beyond the usual limits of such assays
HLA-A*26:01 [4] = experiment: as above
HLA-B*18:01 [5] = experiment: as above
HLA-B*39:01 = experiment: as above
HLA-B*46:01 = experiment: as above
HLA-B*57:01 [6] = experiment: as above
HLA-B*51:01 = experiment: as above
HLA-A*02:01 [7] = experiment: as above
HLA-B*58:01 = experiment: IEDB peptide-MHC binding, purified MHC/direct/fluorescence; filed as Kd, often an IC50 or EC50 that approximates it; ≥ and ≤ were set here for values at or beyond the usual limits of such assays
HLA-C*15:02 = experiment: as above
HLA-B*57:01 [8] = experiment: as above
HLA-A*01:01 [9] = experiment: IEDB peptide-MHC binding, purified MHC/competitive/fluorescence; filed as Kd, often an IC50 or EC50 that approximates it; ≥ and ≤ were set here for values at or beyond the usual limits of such assays; settings: source organism: Homo sapiens
HLA-A*02:12 = experiment: as above
HLA-A*02:03 = experiment: as above; settings: source organism: Vibrio parahaemolyticus K5030
HLA-A*03:01 [10] = experiment: as above
HLA-B*15:01 [11] = experiment: as above; settings: source organism: Vibrio parahaemolyticus K5030
HLA-A*02:11 = experiment: as above; settings: source organism: Vibrio parahaemolyticus K5030
HLA-A*02:19 = experiment: as above
HLA-B*07:02 = experiment: IEDB peptide-MHC binding, purified MHC/direct/fluorescence; filed as Kd, often an IC50 or EC50 that approximates it; ≥ and ≤ were set here for values at or beyond the usual limits of such assays
HLA-A*31:01 = experiment: as above
HLA-A*11:01 = experiment: as above
HLA-B*27:05 = experiment: as above
HLA-B*44:02 = experiment: as above
HLA-B*18:01 [12] = experiment: as above; settings: source organism: Escherichia coli O157:H7
HLA-B*48:01 = experiment: as above; settings: source organism: Escherichia coli O157:H7
HLA-B*40:01 = experiment: as above
HLA-A*01:01 [13] = experiment: as above
HLA-A*68:02 [14] = experiment: IEDB peptide-MHC binding, purified MHC/competitive/fluorescence; filed as Kd, often an IC50 or EC50 that approximates it; ≥ and ≤ were set here for values at or beyond the usual limits of such assays; settings: source organism: Escherichia coli HS
HLA-B*15:17 = experiment: as above
HLA-B*08:01 = experiment: IEDB peptide-MHC binding, purified MHC/direct/fluorescence; filed as Kd, often an IC50 or EC50 that approximates it; ≥ and ≤ were set here for values at or beyond the usual limits of such assays
HLA-B*35:01 = experiment: as above
HLA-A*26:01 [15] = experiment: as above
HLA-B*15:01 [16] = experiment: as above; settings: source organism: Alkhumra hemorrhagic fever virus
HLA-A*24:03 = experiment: as above; settings: source organism: Tick-borne encephalitis virus
[17] = source organism: Camelpox virus M-96
[18] = source organism: Vaccinia virus WR
[19] = source organism: Orthohantavirus puumalaense
[20] = source organism: Vaccinia virus Copenhagen
[21] = source organism: Vibrio parahaemolyticus K5030
[22] = source organism: Escherichia coli O157:H7
[23] = source organism: Vibrio cholerae
[24] = source organism: Canarypox virus
[25] = source organism: Tick-borne encephalitis virus
[26] = source organism: Alkhumra hemorrhagic fever virus

Sequence: FGMPNPEGY
Kd (HLA-A*29:02; source organism: Desulfuromonas acetoxidans DSM 684): 0.0231 µM

Sequence: WYYDFHFFV
Kd (HLA-A*02:01 [1]; [17]): 0.391 µM
Kd (HLA-A*69:01; [17]): 0.27 µM
Kd (HLA-C*06:02; [18]): ≥ 20 µM

Sequence: GRYYVLQFV
Kd (HLA-C*06:02; source organism: Listeria monocytogenes J0161): 0.301 µM

Sequence: IILKALYML
Kd (HLA-A*02:01 [1]; [19]): 0.0074 µM
Kd (HLA-A*68:02 [2]): ≥ 20 µM
Kd (HLA-A*03:01 [3]; source organism: Limestone Canyon virus): ≥ 20 µM
Kd (HLA-B*27:03; [19]): ≥ 20 µM
Kd (HLA-A*26:01 [4]; [19]): ≥ 20 µM
Kd (HLA-B*18:01 [5]; [19]): ≥ 20 µM
Kd (HLA-B*39:01; [19]): ≥ 20 µM
Kd (HLA-B*46:01; [19]): ≥ 20 µM
Kd (HLA-B*57:01 [6]; [19]): ≥ 20 µM
Kd (HLA-B*51:01; [19]): ≥ 20 µM

Sequence: YLHPKDKYL
Kd (HLA-C*06:02; [20]): 2.08 µM
Kd (HLA-A*02:01 [7]; [20]): 0.0125 µM

Sequence: KSLVQYIKF
Kd (HLA-B*58:01; [17]): 0.0635 µM
Kd (HLA-C*15:02; [18]): ≥ 20 µM
Kd (HLA-B*57:01 [8]; [17]): 0.508 µM

Kd (HLA-A*29:02; source organism: Homo sapiens): ≤ 0.0001 µM
Kd (HLA-A*01:01 [9]): 1.56 µM
Sequence: YFEYIEENKY

Kd (HLA-C*15:02; source organism: Caenorhabditis elegans): 1.6 µM
Sequence: TNFEFFGKL

Kd (HLA-A*02:12; source organism: Haemophilus influenzae): 0.0268 µM
Sequence: HLGGFVHAC

Sequence: YLNDFAQLL
Kd (HLA-C*06:02; source organism: Mycobacterium tuberculosis str. Haarlem): 0.025 µM

Sequence: AGGWVLWKV
Kd (HLA-A*02:01 [7]; [21]): ≥ 20 µM
Kd (HLA-B*27:03; [21]): ≥ 20 µM
Kd (HLA-A*26:01 [4]; [21]): ≥ 20 µM
Kd (HLA-A*02:03): ≥ 20 µM
Kd (HLA-A*29:02; [21]): ≥ 20 µM
Kd (HLA-A*03:01 [10]; [21]): ≥ 20 µM
Kd (HLA-B*15:01 [11]): ≥ 20 µM
Kd (HLA-A*02:11): 0.0015 µM
Kd (HLA-B*18:01 [5]; [21]): ≥ 20 µM
Kd (HLA-A*02:19; [21]): ≥ 20 µM
Kd (HLA-B*39:01; [21]): ≥ 20 µM
Kd (HLA-B*46:01; [21]): ≥ 20 µM
Kd (HLA-A*02:12; [21]): ≥ 20 µM
Kd (HLA-B*57:01 [6]; [21]): ≥ 20 µM
Kd (HLA-B*51:01; [21]): ≥ 20 µM

Kd (HLA-B*07:02; [22]): ≥ 20 µM
Kd (HLA-A*31:01; [22]): ≥ 20 µM
Kd (HLA-A*02:01 [1]; [22]): ≥ 20 µM
Kd (HLA-A*11:01; [22]): ≥ 20 µM
Kd (HLA-A*69:01; [22]): ≥ 20 µM
Kd (HLA-B*27:05; [22]): ≥ 20 µM
Kd (HLA-B*44:02; [22]): ≥ 20 µM
Kd (HLA-B*18:01 [12]): 0.101 µM
Kd (HLA-B*48:01): ≥ 20 µM
Kd (HLA-B*58:01; [22]): ≥ 20 µM
Kd (HLA-B*40:01; [22]): 0.019 µM
Kd (HLA-A*01:01 [13]; [22]): ≥ 20 µM
Kd (HLA-B*57:01 [8]; [22]): ≥ 20 µM
Kd (HLA-A*68:02 [14]): 2.64 µM
Kd (HLA-B*15:17; source organism: Escherichia coli HS): 1.12 µM
Sequence: GEIFGLLGP

Sequence: KEDPGDHIF
Kd (HLA-B*07:02; [23]): ≥ 20 µM
Kd (HLA-A*31:01; [23]): ≥ 20 µM
Kd (HLA-B*08:01; [23]): ≥ 20 µM
Kd (HLA-A*02:01 [1]; [23]): ≥ 20 µM
Kd (HLA-B*35:01; [23]): 0.224 µM
Kd (HLA-A*26:01 [15]; [23]): ≥ 20 µM
Kd (HLA-A*03:01 [3]; [23]): ≥ 20 µM
Kd (HLA-A*11:01; [23]): ≥ 20 µM
Kd (HLA-A*69:01; [23]): ≥ 20 µM
Kd (HLA-B*27:05; [23]): ≥ 20 µM
Kd (HLA-B*44:02; [23]): ≥ 20 µM
Kd (HLA-B*58:01; [23]): ≥ 20 µM
Kd (HLA-B*40:01; [23]): 0.0249 µM
Kd (HLA-A*01:01 [13]; [23]): ≥ 20 µM

Sequence: YMMDGNECP
Kd (HLA-A*02:01 [7]; [24]): 0.247 µM
Kd (HLA-B*27:03; [24]): ≥ 20 µM
Kd (HLA-A*26:01 [4]; [24]): ≥ 20 µM
Kd (HLA-A*29:02; [24]): ≥ 20 µM
Kd (HLA-A*03:01 [10]; [24]): ≥ 20 µM
Kd (HLA-B*15:17; [24]): ≥ 20 µM
Kd (HLA-B*18:01 [5]; [24]): ≥ 20 µM
Kd (HLA-A*02:19; [24]): 0.2 µM
Kd (HLA-B*39:01; [24]): ≥ 20 µM
Kd (HLA-B*46:01; [24]): ≥ 20 µM
Kd (HLA-B*57:01 [6]; [24]): ≥ 20 µM
Kd (HLA-B*51:01; [24]): ≥ 20 µM

Sequence: FRYMNSQGL
Kd (HLA-B*08:01; source organism: SARS-CoV1): 7.93 µM
Kd (HLA-A*03:01 [3]; source organism: SARS-CoV1): ≥ 36.3 µM
Kd (HLA-A*11:01; source organism: SARS-CoV1): ≥ 21.9 µM
Kd (HLA-B*27:05; source organism: SARS-CoV1): 0.0513 µM
Kd (HLA-C*06:02; source organism: SARS-CoV1): 0.002 µM
Kd (HLA-B*40:01; source organism: SARS-CoV1): ≥ 45.5 µM

Sequence: WPWNAREDV
Kd (HLA-B*07:02; [25]): 0.466 µM
Kd (HLA-A*31:01; [26]): ≥ 20 µM
Kd (HLA-B*08:01; [25]): 7.65 µM
Kd (HLA-A*02:01 [1]; [26]): ≥ 20 µM
Kd (HLA-B*35:01; [25]): 0.103 µM
Kd (HLA-A*26:01 [15]; [26]): ≥ 20 µM
Kd (HLA-A*03:01 [3]; [26]): ≥ 20 µM
Kd (HLA-B*15:01 [16]): ≥ 20 µM
Kd (HLA-B*27:05; [26]): ≥ 20 µM
Kd (HLA-A*24:03): 5.29 µM
Kd (HLA-B*44:02; [26]): ≥ 20 µM
Kd (HLA-B*58:01; [26]): ≥ 20 µM
Kd (HLA-B*40:01; [26]): ≥ 20 µM
Kd (HLA-A*01:01 [13]; [26]): ≥ 20 µM
